Laboratory results from patent publication US20240409617A1.

Key:
[1] = target: B.1.1.7 Spike (SARS-CoV2)
[2] = target: B.1.351 Spike (SARS-CoV2)
[3] = target: P.1 Spike (SARS-CoV-2 spike protein, Brazilian variant P.1) (SARS-CoV-2)
[4] = target: B.1.1.7 Spike (SARS-CoV-2 spike protein, UK variant B.1.1.7) (SARS-CoV-2)
[5] = target: B.1.351 Spike (SARS-CoV-2 spike protein, South African variant B.1.351) (SARS-CoV-2)

Binder	Kd [1] [pM]	Response [1]	Kd (P.1 Spike (SARS-CoV2)) [pM]	Response (P.1 Spike (SARS-CoV2))	Kd [2] [pM]	Response [2]	Kd [3] [pM]	Response [3]	Kd [4] [pM]	Response [4]	Kd [5] [pM]	Response [5]
Ab_26 scFv-Fc (scFv, V domains shown) VH: QVQLVQSGGGLVQPGRSLRLSCAASGFTFDDYAMHWVRQVPGKGLEWVSGIDWNSGVIGYADSVKGRFTISRDNAKNSLYLQMNSLRAEDTALYYCAKDAYSYGFLGAFDIWGQGTMVTVSS VL: LPVLTQPPSVSVAPGQTASITCGGDNIRTKGVHWYQQKPGQAPLLVIYYASDRPSGIPERFSGSSSGNTATLTISRVEAGDEADYYCQVWDSSSDLVVFGGGTTLTVL	1.37	0.336	10.3	0.188	1.78	0.214	–	–	–	–	–	–
Ab_23 scFv-Fc (scFv, V domains shown) VH: EVQLVQSGAEVKKPGSSVKVSCRSSGGTFSTYGITWVRQAPGQGLEWMGRIIPSLGIPNYAQKFQGRVTITADTSVSTAWMELSSLESDDTAIYYCARENIDLATNDFWGQGTLVTVSS VL: QSALTQPPSASGSPGQSVTISCTGTSRDIGAYGYVSWYQQVPGKAPKLIIYEVRNRPSGVSSRFSGSKSGNTASLTISGLQAEDEADYYCSSYTSSSTLDVVFGGGTKLTVL	9.11	0.135	8.79	0.123	7.58	0.189	–	–	–	–	–	–
Ab_17 scFv-Fc (scFv, V domains shown) VH: QVQLVQSGGGVVQPGRSLRLSCAASGFTFDDYAMHWVRQVPGKGLEWVSGIDWNSGVIGYADSVKGRFTISRDNVKNSLYLQMNSLRTEDSALYYCAKDIGPGGSGSYYAFDIWGQGTTVTVSS VL: QSALTQPASVSGSPGQSITISCTGTSSDVGGSKYVSWYQQHPGKAPKVMIYDVTKRPSGVPDRFSGSKSGNTASLTISGLQAEDEADYYCAAWDDSLNGVVFGGGTKLTVL	1.85	0.331	8	0.177	562	0.199	–	–	–	–	–	–
Ab_27 scFv-Fc (scFv, V domains shown) VH: QVQLVQSGTEVKKPGASVKVSCKASGYSFTGSHLHWVRQAPGQGLEWMGWINPDSGVINYAQKFQGRVTLTRDTSISTAYMELSGLRSDDTAVYYCARDKAIGYVWALDYWGQGTLVTVSS VL: QSALTQPPSVSGSPGQSVTISCTGTSSDVGTYNRVSWYQQPPGKAPKLMIYEVSNRPSGVSNRFSGSKSGNTASLTISGLQAEDEADYYCSSYTRTFTYVFGTGTKVTVL	1.57	0.281	8.9	0.0795	1.25	0.0974	–	–	–	–	–	–
S1-RBD-R3-T1-F5 (Ab2-7) scFv-Fc (scFv, V domains shown) VH: QVTLKESGPTRVKPTQTLTLTCTFSGFSLSTTGVGVGWIRQPPGKALEWLALIYWNDDKRYSPSLKSRLTITKDTSKNQVVLTMTNMDPVDTATYYCARISGSGYFYPFDIWGQGTTVTVSS VL: NFMLTQPHSVSESPGKTVTISCTRSSGSIASNYVQWYQQRPGSSPTTVIYEDNQRPSGVPDRFSGSIDSSSNSASLTISGLKAEDEADYYCQSYDSSSLWVFGGGTKLTVL	379	0.127	7.04	0.152	360	0.13	–	–	–	–	–	–
Ab_28 scFv-Fc (scFv, V domains shown) VH: QVTLKESGPGLVNPSETLSLTCTVSGASISNSFWSWIRQSPGKGLEWIGYTSYSGNSIYNPSLKSRLTMSIDTSKNQLSLNLRSLTAADTAVYYCARREWIKGHFDYWGQGTLVTVSS VL: NFMLTQPHSVSESPGKTVTISCTGSGGSIASNYVQWYQQRPGSAPTTVIYEDNQRPSGVPDRFSGSIDSSSNSASLTISGLKTEDEADYYCQSYDSSNPVVFGGGTKLTVL	1.49	0.206	8.91	0.102	6.38	0.12	–	–	–	–	–	–
Ab_13 scFv-Fc (scFv, V domains shown) VH: QVTLKESGPKLVKPTQTLTLTCTFSGFSLSTSGVGVGWIRQPPGKALEWLALIYWDDDKRYSPSLKSRLTIAKDTSKYQVVLTMTNMDPVDTATYYCARISGSGYFYPFDIWGQGTMVTVSA VL: NFMLTQPHSVSESPGKTVTISCTRSSGSIASNYVQWYQQRPGSAPTTVIYEDNQRPSGVPDRFSGSIDSSSNSASLTISGLKTEDEADYYCQSYDSSNLWVFGGGTKLTVL	1.91	0.113	4.88	0.112	735	0.103	–	–	–	–	–	–
Ab_25 scFv-Fc (scFv, V domains shown) VH: QVQLVQSGGGLVQPGGSLRLSCAASGFTFSSYWMSWVRQAPGKGLEWVANIKQDGSEKYYVDSVKGRFTISRDNAKNSLYLQMNSLRAEDTAVYYCARGFYYYGAFDIWGQGTTVTVSS VL: NFMLTQPHSVSESPGKTVTISCTGSSGSIASNYVQWYQQRPGSAPTTVIYEDNQRPSGVPDRFSGSIGSSSNSASLTISGLKTEDEADYYCQSYDSSNHWVFGGGTKLTVL	427	0.0668	8.72	0.0396	1.13	0.0577	–	–	–	–	–	–
Ab 29 scFv-Fc (scFv, V domains shown) VH: QVQLQQSGPGLVKPSQTLSLTCAISGDSVSSYSDAWNWIRQSPSRGLEWLGRTYYRSKWYNDYAVSVKSRITINPDTSKNQFSLQLSSVTPEDTAVYYCAREIVATTPFRNYYYGMDVWGQGTTVTVSS VL: NFMLTQPHSVSESPGNTVTISCTRTSGSIASNYVQWYQQRPGSSPTTVIFQDKLRPSGVPDRFSGSIDSSSNSASLTISGLKTEDEADYYCQSYDSSSLWVFGGGTKLTVL	–	–	–	–	–	–	8.45	0.0232	693	0.118	371	0.0418
Ab_20 scFv-Fc (scFv, V domains shown) VH: QVQLVQSGGGSVKPGGSLRLSCAASGYRLSDYYMHWVRQAPGKGLEWVANIKQDGSEKYYVDSVKGRFTISRDNAKNSLYLQMNSLRAEDTAVYYCARVRGWSRGYFDYWGQGTLVTVSS VL: NFMLTQPHSVSESPGKTVTISCTGSSGSIASNYVQWYQQRPGSAPTTVIYEDNQRPSGVPDRFSGSIDSSSNSASLLISGLKTEDEADYYCQSYDSSNHWVFGGGTKLTVL	2.6	0.173	11.2	0.17	7.03	0.213	–	–	–	–	–	–
Ab_21 scFv-Fc (scFv, V domains shown) VH: QVQLVQSGGGLVQPGGSLRLSCATSGFTFDDYAMHWVRQAPGKGLEWVSGISWNSGSIGYVDSVKGRFTISRDNRNNKVYLQMNNLRAEDTAVYYCARDWWGSIDHWGLGTLVTVSS VL: QSALTQPRSVSGSPGQSVTISCTGTSSDVGGYDYVSWYQQHPGKAPKLIIYDVSKRPSGVPDRFSGSKSGNTASLTVSGLQAEDEADYYCSSYTSSSPVVFGGGTKLTVL	1.47	0.199	9.52	0.103	369	0.148	–	–	–	–	–	–
S1-R3-T1-C4 (Ab_8) scFv-Fc (scFv, V domains shown) VH: QVQLVQSGAEVKKPGSSVKVSCKASGGTFSSYAISWLRQAPGQGLEWMGWINPNSGGTNYAQKFQGRVTMTRDTSISTAYMELSRLRSDDTAVYYCARGSGGYYLGWGQGTLVTVSS VL: QPGLTQPPSVSKGLRQTATLTCTGNSNNVGNQGAAWLQQHQGHPPKLLSYMNNNRPPGISERFSASRSGNTASLTITGLQPEDEADYYCSAWDSSLSRWVFGGGTKLSVL	2.29	0.202	10.6	0.0784	1090	0.0872	–	–	–	–	–	–
Ab 30 scFv-Fc (scFv, V domains shown) VH: QVQLVQSGGGVVQPGKSLRLSCTASGFTFSDFPIHWVRQAPGKGLEWVGVISYDGNIKYYGDSVKGRFTISRDNAKNSLYLQMNSLRVEDTAVYYCARGGSSFDIWGQGTTVTVSS VL: SYELTQPPSVSEAPRQRVTISCSGSTSNIGNNAVSWYQHLPGKAPKLLIYYNERLPSGVSDRFSGSKSGTSASLAISGLRSEDEADYYCAAWDDSLSGHVVFGGGTKLTVL	–	–	–	–	–	–	9.02	0.0766	< 1	0.139	< 1	0.0883
Ab_14 scFv-Fc (scFv, V domains shown) VH: QVQLQQSGPGLVKPSQTLSLTCAISGDSVSSNSAAWNWIRQSPARGLEWLGRTYYRSRWYNDYAISMKSRITINPDTSKNQFSLQLESVTPEDTAVYYCAREIRGFDYWGQGTLVTVSS VL: QSVLTQPPSASGSPGQSVTISCTGTSSDVGAYNFVSWYQHHPGKAPKLIIYDFNKRPSGVPDRFSGSKSGNTASLTVSGLQADDEADYYCSSYAGSNNFDVVFGGGTKLTVL	7.98	0.355	9.75	0.27	3.1	0.253	–	–	–	–	–	–
Ab_19 scFv-Fc (scFv, V domains shown) VH: EVQLVESGAEVKKPGESLKISCKGSGYSFTSYWIGWVRQMPGKGLEWMGIIYPGDSDTRYSPSFQGQVTISADKSISTAYLQWSSLKASDTAMYYCARRGDLDAFDIWGQGTMVTVSS VL: QPGLTQPPAASGTPGQRVTVSCSGASANIGSNAVSWFKQFPETAPRLLISGNTHRPSGVPDRVSGSKSGTSASLTISGLQSDDEADYYCAAWDDSLNGYVFGSGTKVTVL	10.3	0.203	8.94	0.204	11.8	0.258	–	–	–	–	–	–
Ab_16 scFv-Fc (scFv, V domains shown) VH: QVQLVQSGGGVVQPGRSLRLSCAASGFTFSNYGMHWVRQAPGKGLEWVALIWERGSKKDYADSVKGRFTVSRDNSKNTLYLQMNSLRPEDTAVYFCAREGISMTGAEYFQHWGQGTLVTVSS VL: QSVLTQPPSVSGSPGQRVTMSCTGSSSNIGAGYDVHWYQQVPGAAPRLLIYGTNNRPSGVPDRFSGSKSGTSASLTITGLQAEDEADYYCQSYDNSLTDPYVFGTGTKVTVL	2.36	0.388	7.93	0.35	< 1	0.405	–	–	–	–	–	–
Ab_18 scFv-Fc (scFv, V domains shown) VH: EVQLVQSGGGVVQPGRSLRVSCAASGFSFSRYGMHWVRQAPGKGLEWVAFIRHDGSKKYYADSVEGRFTISRDNSRNTVSLEMNSLRGEDTAVYYCAKDGRLEAALDDWGQGTLVTVSS VL: NFMLTQPHSMSGSAGKTVTVSCIRSSGSIANNFVQWYQQRPGSAPTTVIYEDNQRPSGVPDRFSGSIDSSSNSASLTISGLKTEDEADYYCQSYDSSNLVFGGGTRLTVL	9.28	0.256	2.97	0.109	1340	0.12	–	–	–	–	–	–
